Data: article PMC4552281

Molecular target: FcBP-encapsulin (Fc-binding peptide inserted encapsulin protein cage nanoparticle) (Thermotoga maritima) (UniProt Q9WZP2)
Test: SEC; elution of purified FcBP-encapsulin compared with encapsulin

- stoichiometry N: 60
Substance: FcBP-encapsulin (Fc-binding peptide inserted encapsulin protein cage nanoparticle) (from UniProt Q9WZP2 1-138; Q9WZP2 139-265) (designed binder)
